Laboratory results taken from US20190282616A1, “MACROPHAGES REDIRECT PHAGOCYTOSIS BY NON-PROFESSIONAL PHAGOCYTES AND INFLUENCE INFLAMMATION” (University of Virginia Patent Foundation, priority 2016, published 2019).

B1: IL-5: cytokine; recombinant mouse IL-5 (eBiosciences) (protein, UniProt P04401 21-133, looked up)
Interleukin-5: MEIPMSTVVKETLTQLSAHRALLTSNETMRLPVPTHKNHQLCIGEIFQGLDILKNQTVRGGTVEMLFQNLSLIKKYIDRQKEKCGEERRRTRQFLDYLQEFLGVMSTEWAMEG
B2: IL-13: cytokine; recombinant mouse IL-13 (eBiosciences) (protein, UniProt P20109 19-131, looked up)
Interleukin-13: APGPVPRSVSLPLTLKELIEELSNITQDQTPLCNGSMVWSVDLAAGGFCVALDSLTNISNCNAIYRTQRILHGLCNRKAPTTVSSLPDTKIEVAHFITKLLSYTKQLFRHGPF
B3: PDGF-BB: growth factor of the tested panel of soluble mediators (protein, UniProt P01127 82-190, looked up)
Platelet-derived growth …: SLGSLTIAEPAMIAECKTRTEVFEISRRLIDRTNANFLVWPPCVEVQRCSGCCNNRNVQCRPTQVQLRPVQVRKIEIVRKKPIFKKATVTLEDHLACKCETVAAARPVT
modifications: homodimer
notes: growth factor of the tested panel of soluble mediators

How the values were obtained:
[1] = test system: IGF-1 in BAL fluid; assay: In vivo cytokine administration: IGF-1 in BAL fluid; settings: 1 μg recombinant mouse cytokine intranasally for two consecutive days
Method: Mice were administered intranasally with 1 μg of recombinant mouse IL-4, IL-5, or IL-13 (eBiosciences), 1×10^6 apoptotic Jurkat cells, or PBS as control, for two consecutive days. On the third day, BAL fluid was recovered and centrifuged; the supernatant was stored at −80° C. for subsequent cytokine analysis. IL-4, IL-5, IL-6, and CCL-11/Eotaxin-1 in the BAL fluid of mice that were sensitized with HDM (regimen #1) were quantified by a multiplex Luminex performed by the University of Virginia Flow Cytometry Core Facility. Secretion of IGF-1 from J774 cells, peritoneal macrophages, and BAL fluids, as well as TSLP from BAL fluids, were measured by ELISA (R&D Systems).

[2] = test system: IGF-1R, Akt and Erk1/2 phosphorylation in LR73 cells; assay: Immunoblotting of signaling in LR73 cells; type: cell-based, hamster; settings: serum-starved LR73 cells, 100 ng/mL growth factor
Method: LR73, J774, or BEAS-2B cells were seeded in a 60 mm dish at a concentration of 5×10^5. […] Cells were lysed in RIPA buffer and used in Western blots. The blots were probed for phospho-Erk1/2 (Cell Signaling Technology, #4370), phospho-Akt (Cell Signaling Technology, #4060), phospho-IGF-1R (Cell Signaling, #3024), total Erk2 (Santa Cruz Biotechnology, #sc-154-G), total Akt (Cell Signaling Technology, #4691), total IGF-1R (Cell Signaling, #9750), and anti-B-actin-HRP (Sigma-Aldrich, #A3854) followed by chemiluminescence detection.

[3] = test system: LR73 cells; assay: In vitro engulfment assay: apoptotic thymocyte uptake by LR73 cells; type: cell-based, hamster; settings: soluble mediator alone; IGF-I at concentrations reported in serum (100-600 ng/mL); other factors over a range of concentrations
Method: LR73, SVEC-40, BEAS-2B, and 16HBE14o-cells were seeded in a 24 well plate. Thymocytes were isolated from 4-6 week old mice and induced to undergo apoptosis with dexamethasone. Thymocytes or prepared microvesicles were then stained with either CypHer5E (GE Healthcare, PA15401) or TAMRA (Invitrogen, C-1171). LR73 and SVEC-40 cells were incubated with apoptotic thymocytes at a 1:10 phagocyte to target ratio, BEAS-2B at a 1:5 phagocyte to target ratio, and 16HBE14o—at a 1:20 phagocyte to target ratio for 2 hours. Mouse IGF-I (Sigma-Aldrich), human IGF-I (Sigma-Aldrich), human IGF-II (Sigma-Aldrich) were added to the phagocytes at the same time as addition of apoptotic targets. For IGFBP3 studies, IGFBP3 (Sigma-Aldrich) was added to media or supernatant from J774 cells for one hour to allow IGFBP3 to bind to any available IGF-I, then the mix is added to phagocytes along with apoptotic targets. […] Targets were then washed off three times with PBS, and the cells were dissociated from the plate with trypsin and the engulfment assessed by flow cytometry.

| Molecule | IGF-1 in bronchoalveolar lavage (BAL) fluid [1] | early downstream signaling events (Erk1/2 phosphorylation) [2] | apoptotic cell uptake (engulfment) by LR73 cells [3] |
| --- | --- | --- | --- |
| B1 | but not IL-5, induced IGF-1 production | – | – |
| B2 | induced IGF-1 production | – | – |
| B3 | – | elicited early downstream signaling events | did not alter engulfment |
